Data reported in the supplement of paper PMC10567573.

B1: LRRC45 (parent)
chain: DLSAANEKNLLLQNQVDELERKFR

Variants of: B1
Experiment: protein stability index of a GFP-peptide fusion (GPS, HEK-293T) (PSI 1-6); higher = more stable
Details: c terminus: a fixed tail appended
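Also: lentivirally expressed fusions sorted by FACS into six bins by GFP to DsRed ratio, PSI derived from sequencing read proportions per bin multiplied by bin number.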

Protein stability index: each site, then its substitutions
A4: F 3.61 | E 4.53 | C 3.85 | D 4.67 | Q 3.82 | W 3.78 | M 3.49 | R 4.07 | L 3.06 | K 4.36 | G 3.77 | Y 3.91 | N 3.29 | H 4.01 | T 4.06 | V 3.77 | I 3.81 | S 4.05 | P 4.11
N14: A 3.95 | T 3.81 | V 3.62 | K 3.69 | Y 3.65 | Q 4.49 | S 3.51 | C 4 | W 3.63 | I 3.05 | H 3.62 | G 4.11 | D 4.54 | M 3.54 | R 3.76 | E 4.19 | P 3.69 | F 3.02 | L 3.43
V16: K 4.42 | C 3.88 | F 3.38 | N 4.24 | G 3.69 | W 3.55 | E 4.72 | L 4.05 | P 4.09 | S 4.32 | M 3.79 | R 4.17 | T 3.66 | Q 4.29 | A 4.48 | Y 3.6 | H 4.08 | I 4 | D 4.12
N6: R 4.61 | E 4.69 | G 4.82 | A 5.2 | W 3.37 | D 5.02 | T 4.4 | V 4.38 | F 3.62 | L 3.8 | I 3.27 | M 3.97 | S 4.92 | K 4.51 | Y 3.77 | Q 4.73 | H 4.27 | C 4.59 | P 4.62
L12: T 3.64 | S 4.03 | N 4.01 | D 4.46 | W 3.48 | K 3.77 | C 4.31 | R 3.98 | A 4.37 | E 4.61 | P 4.18 | G 4.03 | M 3.87 | H 4 | Y 4.08 | Q 4.19 | I 4.25 | V 4.36 | F 4.09
E20: D 4.25 | G 3.22 | N 3.27 | M 2.81 | I 3.47 | R 3.06 | P 3.12 | F 2.54 | C 3.73 | A 3.96 | L 3.23 | Q 3.47 | H 3.35 | K 3.2
S3: E 4.86 | N 4.07 | T 3.62 | H 4.13 | P 4.31 | V 3.89 | R 4.26 | L 3.51 | W 3.18 | K 4.15 | M 4.11 | G 4.54 | Y 3.58 | F 3.49 | I 3.51 | Q 4.04
K8: N 4 | H 4.06 | P 4.35 | C 3.83 | R 4.15 | V 3.85 | W 3.6 | S 4.36 | F 3.85 | I 3.43 | G 4.17 | T 4.31 | E 4.56 | Q 4.12 | L 3.6 | A 4.62 | M 4 | Y 3.63 | D 4.21
Q15: W 3.27 | C 3.84 | H 4.04 | V 3.48 | P 3.71 | E 4.7 | A 3.57 | K 4.06 | N 3.75 | D 4.4 | I 3.38 | R 3.5 | T 3.35 | Y 2.76 | G 4.36 | S 4.42 | L 3.01 | F 2.32 | M 3.77
L11: M 3.56 | N 4.5 | V 3.96 | H 4.59 | D 4.94 | F 4.13 | G 4.32 | T 3.86 | I 4.46 | S 4.31 | R 4.04 | K 4.57 | C 4.15 | P 4.32 | Y 4.2 | W 3.89 | E 4.84 | A 4.42 | Q 4.31
L19: P 3.78 | Y 3.48 | W 3.75 | T 4.34 | C 4.16 | M 4.03 | F 3.76 | V 4.31 | G 4.41 | Q 3.99 | N 4.27 | R 3.68 | S 4.34 | I 4.24 | A 4.58 | D 5.16 | K 3.92 | H 4.12 | E 4.57
E18: I 2.49 | F 3.16 | A 3.57 | K 3.94 | V 3.44 | C 3.4 | N 3.56 | L 3.31 | Y 3.26 | H 3.35 | D 5.06 | M 3.23 | G 3.67 | T 3.7 | P 3.91 | R 2.96 | W 3.36 | Q 3.56 | S 3.33
L10: M 4.09 | A 4.18 | G 4.77 | F 3.94 | H 4.62 | K 4 | I 3.58 | E 4.94 | S 4.45 | V 4.39 | T 4.26 | Q 4.51 | P 4.75 | D 4.86 | W 3.89 | N 4.17 | Y 3.71 | C 4.07 | R 4.06
D17: C 3.24 | N 3.52 | M 3.58 | A 3.58 | S 3.46 | L 3.24 | W 2.9 | Q 3.66 | K 3.55 | P 3.57 | Y 3.23 | I 3.01 | F 2.81 | E 4.39 | R 2.97 | G 3.46 | T 2.96 | H 2.99 | V 3.4
Q13: C 4.03 | E 4.71 | H 3.66 | V 4.53 | T 4.11 | S 3.98 | L 3.96 | R 3.74 | G 4.11 | I 3.6 | D 4.63 | A 4.25 | Y 3.42 | W 3.3 | F 3.44 | M 3.71 | N 3.68 | P 3.8 | K 4.32
A5: G 4.22 | E 4.01 | Y 3.87 | R 3.67 | F 3.79 | T 3.91 | V 3.95 | N 3.18 | L 3.83 | S 4.39 | H 4.16 | K 4.33 | M 3.62 | W 3.34 | Q 3.9 | D 3.69 | C 4.42 | P 4 | I 4.02
N9: H 4.2 | W 3.79 | T 4.59 | S 4.63 | V 4.12 | I 4.21 | F 3.98 | Q 4.57 | C 4.23 | A 4.77 | M 4.24 | P 4.3 | L 3.54 | G 3.93 | D 4.91 | K 4.11 | E 4.89 | Y 3.67 | R 4.02
E7: H 3.94 | Y 2.98 | Q 3.63 | W 2.72 | C 3.78 | G 3.43 | V 3.46 | K 3.7 | N 3.01 | D 4.73 | I 3.2 | F 2.88 | R 3.84 | T 3.69 | L 2.96 | S 3.74 | P 4.31 | A 3.5 | M 3.14
